Consider one molecule from US20140255415A1 (Novartis, published 2014).

The target in test [1] is human LINGO-1 expressed on CHO-K1 cells (CHO-K1-hLINGO-1) (human) (UniProt Q96FE5). Put plainly: apparent KD, FACS saturation binding on CHO-K1-hLINGO-1 cells, IgG4 format.
Test [2] has as its target T1, human LINGO-2 expressed on CHO-K1 cells (CHO-K1-hLINGO-2) (human, UniProt Q7L985 26-606).
T1 construct: range 26-606; not shown: 2 amino acid residue linker
T1 sequence (looked up): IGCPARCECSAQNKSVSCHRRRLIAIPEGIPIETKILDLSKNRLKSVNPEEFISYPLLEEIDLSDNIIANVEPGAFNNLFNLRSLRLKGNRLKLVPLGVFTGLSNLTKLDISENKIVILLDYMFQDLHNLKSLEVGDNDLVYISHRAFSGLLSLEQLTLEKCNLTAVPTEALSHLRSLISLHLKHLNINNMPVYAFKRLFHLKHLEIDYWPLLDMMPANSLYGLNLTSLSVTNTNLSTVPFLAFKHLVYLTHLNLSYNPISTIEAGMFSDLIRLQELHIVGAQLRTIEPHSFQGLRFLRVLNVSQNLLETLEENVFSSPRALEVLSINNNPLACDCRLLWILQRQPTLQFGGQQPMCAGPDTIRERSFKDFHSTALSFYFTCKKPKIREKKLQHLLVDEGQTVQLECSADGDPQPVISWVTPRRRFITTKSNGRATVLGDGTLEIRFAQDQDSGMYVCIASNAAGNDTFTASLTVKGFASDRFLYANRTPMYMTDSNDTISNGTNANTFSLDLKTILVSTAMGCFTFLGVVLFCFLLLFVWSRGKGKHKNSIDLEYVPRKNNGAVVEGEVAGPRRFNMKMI
Put plainly: apparent KD, FACS saturation binding on CHO-K1-hLINGO-2 cells, IgG4 format.

Test [3] has as its target T2, rat LINGO-1 expressed on CHO-K1 cells (CHO-K1-rLINGO-1) (rat, UniProt A0A8I5ZPI2 34-614).
T2 construct: range 34-614; not shown: 2 amino acid residue linker
T2 sequence: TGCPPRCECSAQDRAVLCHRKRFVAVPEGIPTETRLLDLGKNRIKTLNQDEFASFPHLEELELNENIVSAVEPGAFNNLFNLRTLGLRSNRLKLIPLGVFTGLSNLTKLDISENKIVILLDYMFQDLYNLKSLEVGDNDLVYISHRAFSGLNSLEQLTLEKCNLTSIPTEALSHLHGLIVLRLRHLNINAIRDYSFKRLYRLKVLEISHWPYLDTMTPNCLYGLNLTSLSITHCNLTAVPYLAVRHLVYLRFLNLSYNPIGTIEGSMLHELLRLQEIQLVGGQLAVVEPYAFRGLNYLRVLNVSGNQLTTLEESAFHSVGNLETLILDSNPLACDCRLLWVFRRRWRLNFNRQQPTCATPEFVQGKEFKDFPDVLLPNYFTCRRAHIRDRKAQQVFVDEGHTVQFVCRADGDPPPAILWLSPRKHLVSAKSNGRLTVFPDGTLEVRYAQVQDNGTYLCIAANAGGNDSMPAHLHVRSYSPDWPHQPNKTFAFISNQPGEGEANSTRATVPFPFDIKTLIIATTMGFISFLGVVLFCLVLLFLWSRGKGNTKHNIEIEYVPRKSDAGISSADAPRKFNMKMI
Kind of test: apparent KD, FACS saturation binding on CHO-K1-rLINGO-1 cells, IgG4 format. As to the method: (§1) Cell based affinity of anti-LINGO-1 specific antibodies is determined by FACS saturation binding experiments. The determination of the apparent KD values is carried out identical to the procedure described above using anti-LINGO-1 Fab antibodies.
(§2) In detail, CHO-K1-hLINGO-1, CHO-K1-cmLINGO-1 or CHO-K1-rLINGO-1 are detached from culture flasks by versene, washed with FACS buffer and resuspended in FACS buffer. Purified anti-LINGO-1 IgG4s are serially diluted in FACS buffer and spread into round bottom 96-well microtiter plates (NUNC™, Wiesbaden, Germany). For each concentration, duplicate wells are incubated with 1.25×10⁴ cells for 30-60 min on ice in a total volume of 100 μl. […] Using this assay the following apparent KD values can be determined (Table 3).

Test [4] concerns the target T3, cynomolgus monkey LINGO-1 expressed on CHO-K1 cells (CHO-K1-cmLINGO-1) (cynomolgus monkey, UniProt Q9N008 34-614).
T3 construct: range 34-614; also called Cynomolgus LINGO-1; not shown: 2 amino acid residue linker
T3 sequence (looked up): T2 sequence with G261S, V286M, A315V, H386R, S494P
Put plainly: apparent KD, FACS saturation binding on CHO-K1-cmLINGO-1 cells, IgG4 format. The method, then: as §1, §2

Test [5] deals with human LINGO-1 expressed on CHO-K1 cells (CHO-K1-hLINGO-1) (human) (UniProt Q96FE5). Kind of test: apparent KD, FACS saturation binding on CHO-K1-hLINGO-1 cells, IgG4 pre-incubated in FACS buffer.
Test [6] has the same target. Kind of test: apparent KD, FACS saturation binding on CHO-K1-hLINGO-1 cells, IgG4, with 50% human cerebro-spinal fluid.
Test [7] shares this target. Put plainly: apparent KD, FACS saturation binding on CHO-K1-hLINGO-1 cells, IgG4 pre-incubated in FACS buffer + 2.6% BSA.
The target is the same in test [8]. Put plainly: ratio of apparent KDs, FACS saturation binding on CHO-K1-hLINGO-1 cells, IgG4, without against with 50% human CSF.
Test [9] has the same target. Put plainly: apparent KD, FACS saturation binding on CHO-K1-hLINGO-1 cells, IgG4 pre-incubated in FACS buffer + 50% human serum.
For test [10] the target is unchanged. Put plainly: apparent KD, FACS saturation binding on CHO-K1-hLINGO-1 cells, IgG4, without 50% human cerebro-spinal fluid (control).

Changes are numbered by the printed parent chain.

B1: anti-LINGO-1 IgG4 antibody 4785 (antibody, V domains shown)
VH: QVQLQQSGPGLVKPSQTLSLTCAISGDSVSDNSAAWSWIRQSPGRGLEWLGLIYLRSKWDNDYAVSVKSRITINPDTSKNQFSLQLNSVTPEDTAVYYCARTGRADEFDVWGQGTLVTVSS
VL: DIVLTQPPSVSGAPGQRVTISCSGSSSNIGNNYVSWYQQLPGTAPKLLISRNSKRPSGVPDRFSGSKSGTSASLAITGLQSEDEADYYCSTYDTFSIVFGGGTKLTVLG
In the case of B1, the Kd in [1] worked out at 0.07 nM; in test [2], 0.95 nM; in [3] it was 0.07 nM; in test [4], 0.18 nM; in test [5] it was 0.08 nM; in test [6], 0.25 nM. The Kd in test [7] is 0.05 nM; in [9] it was 0.06 nM; in [10] it was 0.19 nM. The App. KD ratio w/o CSF:w/ CSF in test [8] worked out at 0.76.
